{
  "source": "patent US20250313611A1",
  "about": "(VIB VZW, published 2025)",
  "binders": {"B1": {"name": "VHH R4_DC6 (VHH)", "VHH": "QVQLQESGGGLVQAGDSLRLSCAASGRILSTFTMGWFRQAPGKEREFVAAMRWNGGTKNYADSVKGRFTISRDNANSVVYLQMNSTKPEDTAVYYCAAAYVSKANYGSLWYRTPSLYDYWGQGTQVTVSS"}, "B2": {"name": "R3_DC23-Fc(YTE) (Fc fusion)", "chain": "DVQLVESGGGLVQPGGSLRLSCAVSGRIFSTYTMGWFRQAPGKEREFVAAVRWGAGTIYYADSVKGRFTISRDNAKNTVYLQMNSLRPEDTAVYYCGAAYVSKANYGSLWYQDSRRYDYWGQGTLVTVSSGGGGSGGGGSDKTHTCPPCPAPELLGGPSVFLFPPKPKDTLYITREPEVTCVVVDVSHEDPEVKFNWYVDGVEVHNAKTKPREEQYNSTYRVVSVLTVLHQDWLNGKEYKCKVSNKALPAPIEKTISKAKGQPREPQVYTLPPSRDELTKNQVSLTCLVKGFYPSDIAVEWESNGQPENNYKTTPPVLDSDGSFFLYSKLTVDKSRWQQGNVFSCSVMHEALHNHYTQKSLSLSPG"}, "B3": {"name": "VHH R3_C4 (VHH)", "VHH": "QVQLQESGGGLVQAGDSLRLSCAVSGRPFSTYTMGWFRQAPGKEREFVAAMRWSGGTIYYADSVKGRFTISRDNDKNTVNLEMNSLKPEDTAVYYCAAAYVSKANYGSLWYRASGLYDYWGQGTQVTVSS"}, "B4": {"name": "VHH R4_DC16 (VHH)", "VHH": "B3 VHH with D75A, K76Q, E82Q, L109S, A113N"}, "B5": {"name": "VHH R4_DC20 (VHH)", "VHH": "B3 VHH with A14T, A50S, I58M, Y59N, K76Q, E82Q, A113N"}, "B6": {"name": "VHH R3_DC2 (VHH)", "VHH": "B3 VHH with A14T, A50S, I58K, A61S, T69S, K76Q, E82Q, A113N"}, "B7": {"name": "VHH R3_DC9 (VHH)", "VHH": "B3 VHH with A14T, A50S, I58M, A61S, E82Q, A113N"}, "B8": {"name": "VHH R3_DC20 (VHH)", "VHH": "B3 VHH with D75A, K76Q, E82Q, K87E, A113N"}, "B9": {"name": "VHH R4_DC9 (VHH)", "VHH": "QVQLQESGGGLVQAGDSLRLSCAASGRIFSTYTMGWFRQAPGMEREFVAAIRWSGSTVYYADSVKGRFTISRDNAKNTVYLQMNSLKPEDTAVYYCAAARVSKANYGTLWYRASGLYDYWGQGTQVTVSS"}, "B10": {"name": "VHH R4_DC13 (VHH)", "VHH": "B3 VHH with A14T, A50S, I58V, A61S, E82Q, S85N, L109F, A113N, G115D"}, "B11": {"name": "VHH R3_DC23 (VHH)", "VHH": "QVQLQESGGGLVQAGDSLTLSCAVSGRIFSTYTMGWFRQAPGKEREFVAAVRWGAGTIYYADSMKGRFTISRDSAKNTVDLQMNSTKPEDTAVYYCGAAYVSKANYGSLWYQDSRRYDYWGQGTQVTVSS"}},
  "key": {"[1]": {"molecular_target": "T1, SARS-COV-2 spike (614G-del18) (SARS-CoV-2, UniProt P0DTC2 14-1255)"}, "[2]": {"molecular_target": "T1, SARS-COV-2 spike (614G-del18)", "remark": "listed apart in the source"}, "[3]": {"molecular_target": "SARS-COV-2 Omicron BA.2 spike (pCG1, del18) (SARS-CoV-2 Omicron BA.2, UniProt P0DTC2 14-1255)", "assay": "cell-based or functional assay"}, "[4]": {"molecular_target": "T1, SARS-COV-2 spike (614G-del18)", "assay": "cell-based or functional assay"}, "[5]": {"molecular_target": "SARS-COV-2 Omicron XBB spike (pCG1, del18) (SARS-CoV-2 Omicron XBB, UniProt P0DTC2 14-1255)", "assay": "cell-based or functional assay"}, "[6]": {"molecular_target": "SARS-COV-2 Omicron BA.1 spike (pCG1, del18) (SARS-CoV-2 Omicron BA.1, UniProt P0DTC2 14-1255)", "assay": "cell-based or functional assay"}, "[7]": {"molecular_target": "SARS-COV-2 Omicron BA.4.6 spike (pCG1, del18) (SARS-CoV-2 Omicron BA.4.6, UniProt P0DTC2 14-1255)", "assay": "cell-based or functional assay"}, "[8]": {"molecular_target": "SARS-COV-2 Omicron BA.2.75 spike (pCG1, del18) (SARS-CoV-2 Omicron BA.2.75, UniProt P0DTC2 14-1255)", "assay": "cell-based or functional assay"}, "[9]": {"molecular_target": "SARS-COV-2 Omicron BQ.1.1 spike (pCG1, del18) (SARS-CoV-2 Omicron BQ.1.1, UniProt P0DTC2 14-1255)", "assay": "cell-based or functional assay"}, "[10]": {"molecular_target": "T1, SARS-COV-2 spike (614G-del18)", "assay": "flow cytometry, transfected HEK cells, MFI GFP+/GFP- cells [1/3]"}, "[11]": {"molecular_target": "T1, SARS-COV-2 spike (614G-del18)", "assay": "flow cytometry, transfected HEK cells, MFI GFP+/GFP- cells [3/3]"}, "[12]": {"molecular_target": "T1, SARS-COV-2 spike (614G-del18)", "assay": "flow cytometry, transfected HEK cells, MFI GFP+/GFP- cells [2/3]"}, "[13]": {"molecular_target": "SARS-COV-2 spike protein (Wuhan) expressed on transfected cells (SARS-CoV-2 (Wuhan), UniProt P0DTC2 14-1273)"}},
  "note": "Positions count from the first letter of the chain named. “And” between values parts separate entries of the source, which are not always exact repeats. Equal values may be shown once. Read-outs that look alike come from different tables or passages of the source.",
  "data": [
    {"binder": "B1", "values": [
      {"measurement": "EC50 (read off the curve)", "setting": "[1]", "value": "~2", "unit": "ng/mL"}
    ]},
    {"binder": "B2", "values": [
      {"measurement": "EC50 (read off the curve)", "setting": "[2]", "value": "~100", "unit": "ng/mL"},
      {"measurement": "EC50, neutralisation of VSV pseudotyped with spike", "setting": "[3]", "value": 0.35, "unit": "ng/mL"},
      {"measurement": "IC50, neutralisation of VSV pseudotyped with spike", "setting": "[3]", "value": "~1", "unit": "ng/mL"},
      {"measurement": "EC50, neutralisation of VSV pseudotyped with spike", "setting": "[4]", "value": 1, "unit": "ng/mL"},
      {"measurement": "IC50, neutralisation of VSV pseudotyped with spike", "setting": "[5]", "value": "~1", "unit": "ng/mL"},
      {"measurement": "EC50, neutralisation of VSV pseudotyped with spike", "setting": "[6]", "value": 1, "unit": "ng/mL"},
      {"measurement": "IC50, neutralisation of VSV pseudotyped with spike", "setting": "[6]", "value": "~1", "unit": "ng/mL"},
      {"measurement": "IC50, neutralisation of VSV pseudotyped with spike", "setting": "[7]", "value": "~1", "unit": "ng/mL"},
      {"measurement": "IC50, neutralisation of VSV pseudotyped with spike", "setting": "[8]", "value": "~1", "unit": "ng/mL"},
      {"measurement": "IC50, neutralisation of VSV pseudotyped with spike", "setting": "[9]", "value": "~1", "unit": "ng/mL"}
    ]},
    {"binder": "B3", "values": [
      {"measurement": "binding result", "setting": "[10]", "value": "binds"}
    ]},
    {"binder": "B4", "values": [
      {"measurement": "binding result", "setting": "[11]", "value": "binds"}
    ]},
    {"binder": "B5", "values": [
      {"measurement": "binding result", "setting": "[11]", "value": "binds"}
    ]},
    {"binder": "B6", "values": [
      {"measurement": "binding result", "setting": "[10]", "value": "binds"}
    ]},
    {"binder": "B7", "values": [
      {"measurement": "binding result", "setting": "[10]", "value": "binds"}
    ]},
    {"binder": "B8", "values": [
      {"measurement": "binding result", "setting": "[10]", "value": "binds"}
    ]},
    {"binder": "B9", "values": [
      {"measurement": "IC50, neutralisation of VSV pseudotyped with spike, Vero E6 cells", "setting": "[4]", "value": "~100", "unit": "ng/mL"},
      {"measurement": "IC50, neutralisation of VSV spike pseudotypes", "setting": "[4]", "value": "68.9 ng/ml and 4680 µM"}
    ]},
    {"binder": "B10", "values": [
      {"measurement": "binding result", "setting": "[12]", "value": "binds"}
    ]},
    {"binder": "B11", "values": [
      {"measurement": "IC50, neutralisation of VSV pseudotyped with spike, Vero E6 cells", "setting": "[4]", "value": "< 1", "unit": "ng/mL"},
      {"measurement": "IC50, neutralisation of VSV spike pseudotypes", "setting": "[4]", "value": "1.2 ng/ml and 80 µM and ~1 ng/ml"},
      {"measurement": "EC50 (read off the curve)", "setting": "[1]", "value": "~10", "unit": "ng/mL"},
      {"measurement": "EC50 (read off the curve)", "setting": "[13]", "value": "~10", "unit": "ng/mL"}
    ]}
  ]
}
